Laboratory results: publication PMC10007213

Key:
[1] = biological target: Dendrorhynchus zhejiangensis ferritin (DzFer) (Dendrorhynchus zhejiangensis); experiment: crystal structure; Cu^2+-DzFer crystallised (0.2 M sodium citrate, 0.1 M Tris pH 8.5, 30% PEG 400); space group I432; 2.26 Å
[2] = biological target: Dendrorhynchus zhejiangensis ferritin (DzFer) (Dendrorhynchus zhejiangensis); experiment: crystal structure; DzFer crystals (0.2 M ammonium sulfate, 0.1 M sodium acetate pH 4.6, 30% PEG MME 2000) soaked 1 min with 100 mM AgNO3; space group I432; 1.90 Å
[3] = biological target: Dendrorhynchus zhejiangensis ferritin (DzFer) (Dendrorhynchus zhejiangensis); experiment: native gel or EMSA; Native-PAGE, 6% gel, 4 °C, Tris-glycine pH 8.3; purified tag-free DzFer, also after incubation and dialysis at pH 4, 6, 8, 10, 12, and as Ag^+-DzFer and Cu^2+-DzFer; subunits to 24-mer cage

Measured: stoichiometry N

Dendrorhynchus zhejiangensis ferritin (DzFer) (natural protein)
24: all assays above
